The values below come from US7329737 (DYAX, dated 2008).

Bounds are passed on as bounds.

In assay [1] the target is T1, hK1 (human tissue kallikrein 1), recombinant (human, UniProt P06870 25-262).
T1 construct: Expressed in P. pastoris from KLK1 cDNA and purified; enzymatically active; also called KLK1; Recombinant (Pichia) Kallikrein
Briefly: SPR.

For assay [2], the target named is T1, hK1 (human tissue kallikrein 1), …. Briefly: cell-based or functional assay.
The target in assay [3] is Human Tissue Kallikrein 2 (hK2) (human, UniProt P20151 25-261). Briefly: protease inhibition assay, Fab up to 1 µM.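 Further: protease and Fab preincubated 1 h at room temperature, then substrate added, fluorescence plate-reader monitoring of substrate hydrolysis rate.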
Sequence of Human Tissue Kallikrein 2 (hK2) (P20151 25-261 limits assumed): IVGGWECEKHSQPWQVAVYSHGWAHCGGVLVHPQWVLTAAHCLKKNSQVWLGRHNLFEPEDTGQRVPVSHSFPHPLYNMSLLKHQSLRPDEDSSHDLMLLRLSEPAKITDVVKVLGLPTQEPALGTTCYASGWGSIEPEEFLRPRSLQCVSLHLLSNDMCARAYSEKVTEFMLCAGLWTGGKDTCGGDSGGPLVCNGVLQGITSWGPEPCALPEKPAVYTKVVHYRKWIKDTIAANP
Method: (§1) Selected antibodies were tested for their ability to inhibit other proteases.
(§2) Assays were performed in black, 96 well, round bottomed microplates in a total volume of 100 μL. Enzyme and Fab inhibitor were incubated in the dark at room temperature for 1 hour prior to the addition of the indicated amount of substrate. The rate of enzymatic substrate hydrolysis was then monitored using the Spectramax Gemini XS fluorescence plate reader using the wavelengths listed in Table 3.
Assay [4] deals with Human Tissue Kallikrein 3 (hK3, PSA) (human, UniProt P07288 25-261). Nature of the assay: protease inhibition assay, Fab up to 1 µM.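 Further: protease and Fab preincubated 1 h at room temperature, then substrate added, fluorescence plate-reader monitoring of substrate hydrolysis rate.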
Sequence of Human Tissue Kallikrein 3 (hK3, PSA) (P07288 25-261 limits assumed): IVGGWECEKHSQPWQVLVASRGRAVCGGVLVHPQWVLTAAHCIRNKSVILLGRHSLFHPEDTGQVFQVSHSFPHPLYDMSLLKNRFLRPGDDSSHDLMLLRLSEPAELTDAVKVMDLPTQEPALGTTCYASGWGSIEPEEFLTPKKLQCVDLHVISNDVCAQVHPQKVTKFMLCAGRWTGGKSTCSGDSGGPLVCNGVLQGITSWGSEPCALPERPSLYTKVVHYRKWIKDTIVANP
Method: as §1, §2
The target of assay [5] is Human Tissue Kallikrein 4 (hK4) (human, UniProt Q9Y5K2 31-254). Briefly: protease inhibition assay, Fab up to 1 µM.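 Further: protease and Fab preincubated 1 h at room temperature, then substrate added, fluorescence plate-reader monitoring of substrate hydrolysis rate.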
Sequence of Human Tissue Kallikrein 4 (hK4) (Q9Y5K2 31-254 limits assumed): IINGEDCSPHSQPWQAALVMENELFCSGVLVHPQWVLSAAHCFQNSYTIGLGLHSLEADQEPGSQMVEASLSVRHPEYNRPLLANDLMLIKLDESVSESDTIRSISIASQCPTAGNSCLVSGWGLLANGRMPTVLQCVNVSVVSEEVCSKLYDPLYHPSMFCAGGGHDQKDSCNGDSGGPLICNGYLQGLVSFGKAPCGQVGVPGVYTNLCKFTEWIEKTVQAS
Method: as §1, §2
Assay [6] has as its target Human Tissue Kallikrein 5 (hK5) (human, UniProt Q9Y337 67-293, limits assumed). Nature of the assay: protease inhibition assay, Fab up to 1 µM.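 Further: protease and Fab preincubated 1 h at room temperature, then substrate added, fluorescence plate-reader monitoring of substrate hydrolysis rate.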
Method: as §1, §2
Assay [7] addresses T2, Human Tissue Kallikrein 8 (hK8) (human, UniProt O60259 33-260).
T2 sequence (looked up): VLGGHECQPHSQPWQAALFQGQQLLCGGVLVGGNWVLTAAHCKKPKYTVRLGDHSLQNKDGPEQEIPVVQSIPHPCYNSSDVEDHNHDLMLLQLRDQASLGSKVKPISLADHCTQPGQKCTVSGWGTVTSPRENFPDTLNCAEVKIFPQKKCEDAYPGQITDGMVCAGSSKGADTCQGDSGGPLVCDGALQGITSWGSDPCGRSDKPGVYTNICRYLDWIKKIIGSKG
Briefly: protease inhibition assay, Fab up to 1 µM.
Method: as §1, §2

Assay [8] addresses Human plasma kallikrein (human, UniProt P03952 20-638). Nature of the assay: protease inhibition assay, Fab up to 1 µM.
Method: as §1, §2
Assay [9] concerns the target Human plasmin (human, UniProt P00747 97-810). Nature of the assay: protease inhibition assay, Fab up to 1 µM.
Method: as §1, §2
Assay [10] deals with Human urokinase (human, UniProt P00749 21-431, limits assumed). Briefly: protease inhibition assay, Fab up to 1 µM.
Method: as §1, §2
Assay [11] concerns the target T3, Human trypsin (human, UniProt P07477 24-247).
T3 construct: also called Human Pancreatic Trypsin
Nature of the assay: protease inhibition assay, Fab up to 1 µM.
Method: as §1, §2

Assay [12] addresses T4, Human elastase (human, UniProt P08246 30-247).
T4 construct: also called Human Neutrophil Elastase
T4 sequence (looked up): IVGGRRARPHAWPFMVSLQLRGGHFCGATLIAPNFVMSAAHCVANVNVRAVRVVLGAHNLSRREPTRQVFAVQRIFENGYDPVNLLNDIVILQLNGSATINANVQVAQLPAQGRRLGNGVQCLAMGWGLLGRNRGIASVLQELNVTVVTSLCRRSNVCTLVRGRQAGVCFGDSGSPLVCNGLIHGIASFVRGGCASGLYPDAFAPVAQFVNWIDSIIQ
Briefly: protease inhibition assay, Fab up to 1 µM.
Method: as §1, §2

Assay [13] addresses Human chymotrypsin (human, UniProt P17538 19-263). Briefly: protease inhibition assay, Fab up to 1 µM.
Method: as §1, §2
Assay [14] addresses Human thrombin (human, UniProt P00734 328-622). Nature of the assay: protease inhibition assay, Fab up to 1 µM.
Method: as §1, §2
In assay [15] the target is T1, hK1 (human tissue kallikrein 1), …. Briefly: enzyme inhibition, tight-binding analysis, noncompetitive; Fab.
Assay [16] has the same target. Nature of the assay: SPR, biotinylated hK1 on streptavidin chip; Fab 50 nM after DX-2300 50 nM (competitor DX-2300).
From the text: Epitope grouping by SPR. Biotinylated hK1 was captured on a streptavidin coated chip to a final ligand density of 88 RU. […] The signal at the end of the injection of the Fab alone is R2.
Assay [17] has as its target Human activated protein kinase C (human). Nature of the assay: protease inhibition assay, Fab up to 1 µM.
Method: as §1, §2
Assay [18] addresses T1, hK1 (human tissue kallikrein 1), …. Briefly: enzyme inhibition, tight-binding analysis, competitive; Fab.
Assay [19] concerns the target kallikrein-like activity in sheep urine (tissue kallikrein, K1) (sheep). Briefly: cell-based or functional assay.

Sequence of Human plasmin (P00747 97-810 limits assumed): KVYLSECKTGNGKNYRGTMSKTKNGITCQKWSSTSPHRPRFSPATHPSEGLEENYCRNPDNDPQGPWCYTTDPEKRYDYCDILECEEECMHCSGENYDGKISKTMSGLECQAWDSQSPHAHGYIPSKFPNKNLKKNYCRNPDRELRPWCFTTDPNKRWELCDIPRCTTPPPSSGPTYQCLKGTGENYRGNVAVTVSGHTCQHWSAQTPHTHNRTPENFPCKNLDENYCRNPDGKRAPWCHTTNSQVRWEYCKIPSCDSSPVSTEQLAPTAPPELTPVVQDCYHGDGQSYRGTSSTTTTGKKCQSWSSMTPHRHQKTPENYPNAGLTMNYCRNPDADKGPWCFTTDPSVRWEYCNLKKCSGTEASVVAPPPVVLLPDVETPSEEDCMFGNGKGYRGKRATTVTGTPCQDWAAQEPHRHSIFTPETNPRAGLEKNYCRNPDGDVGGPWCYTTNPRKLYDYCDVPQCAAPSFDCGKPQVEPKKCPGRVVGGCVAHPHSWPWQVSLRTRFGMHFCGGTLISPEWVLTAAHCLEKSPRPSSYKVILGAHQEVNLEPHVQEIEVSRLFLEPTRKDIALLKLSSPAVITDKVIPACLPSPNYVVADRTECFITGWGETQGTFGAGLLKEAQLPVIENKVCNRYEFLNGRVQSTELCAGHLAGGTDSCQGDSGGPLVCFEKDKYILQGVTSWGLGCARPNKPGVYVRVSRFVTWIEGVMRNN
Sequence of Human Tissue Kallikrein 5 (hK5) (Q9Y337 67-293 limits assumed): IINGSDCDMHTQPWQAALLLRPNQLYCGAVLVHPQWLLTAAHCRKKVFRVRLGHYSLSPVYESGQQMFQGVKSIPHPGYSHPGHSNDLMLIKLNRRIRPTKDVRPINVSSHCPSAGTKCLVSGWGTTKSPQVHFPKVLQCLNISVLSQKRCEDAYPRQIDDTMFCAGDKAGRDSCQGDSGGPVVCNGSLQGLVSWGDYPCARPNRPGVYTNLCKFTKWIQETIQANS
Sequence of Human plasma kallikrein (P03952 20-638 limits assumed): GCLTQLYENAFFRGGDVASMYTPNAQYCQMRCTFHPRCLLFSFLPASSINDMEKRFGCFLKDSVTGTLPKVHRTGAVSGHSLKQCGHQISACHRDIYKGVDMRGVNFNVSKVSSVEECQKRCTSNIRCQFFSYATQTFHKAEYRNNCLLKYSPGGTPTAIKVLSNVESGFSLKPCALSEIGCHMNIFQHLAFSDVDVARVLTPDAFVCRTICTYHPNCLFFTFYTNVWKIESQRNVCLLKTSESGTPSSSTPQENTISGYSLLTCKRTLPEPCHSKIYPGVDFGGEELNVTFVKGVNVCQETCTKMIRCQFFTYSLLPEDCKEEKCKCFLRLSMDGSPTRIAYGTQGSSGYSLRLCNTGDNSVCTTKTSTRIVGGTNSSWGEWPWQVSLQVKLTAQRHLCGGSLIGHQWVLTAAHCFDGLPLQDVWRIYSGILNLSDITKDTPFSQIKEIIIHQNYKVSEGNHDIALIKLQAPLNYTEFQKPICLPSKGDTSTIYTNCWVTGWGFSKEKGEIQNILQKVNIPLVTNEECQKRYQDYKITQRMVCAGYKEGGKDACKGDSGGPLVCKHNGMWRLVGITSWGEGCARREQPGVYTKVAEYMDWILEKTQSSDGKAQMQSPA
Sequence of Human chymotrypsin (P17538 19-263): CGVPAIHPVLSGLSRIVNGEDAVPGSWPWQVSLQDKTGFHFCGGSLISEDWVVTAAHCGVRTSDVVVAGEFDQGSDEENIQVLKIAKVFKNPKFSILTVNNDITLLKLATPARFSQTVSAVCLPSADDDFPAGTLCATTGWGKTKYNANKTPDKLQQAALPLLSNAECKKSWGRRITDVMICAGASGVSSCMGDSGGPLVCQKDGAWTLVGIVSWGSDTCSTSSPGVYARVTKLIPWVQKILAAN
Sequence of Human activated protein kinase C (human) (P04070 43-197, chain 1 of 2): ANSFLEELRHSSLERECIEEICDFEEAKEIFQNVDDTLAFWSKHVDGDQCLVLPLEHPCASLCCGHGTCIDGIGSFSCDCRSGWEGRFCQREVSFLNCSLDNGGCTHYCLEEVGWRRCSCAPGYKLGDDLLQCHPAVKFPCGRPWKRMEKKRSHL
Sequence of Human activated protein kinase C (human) (P04070 212-461, chain 2 of 2): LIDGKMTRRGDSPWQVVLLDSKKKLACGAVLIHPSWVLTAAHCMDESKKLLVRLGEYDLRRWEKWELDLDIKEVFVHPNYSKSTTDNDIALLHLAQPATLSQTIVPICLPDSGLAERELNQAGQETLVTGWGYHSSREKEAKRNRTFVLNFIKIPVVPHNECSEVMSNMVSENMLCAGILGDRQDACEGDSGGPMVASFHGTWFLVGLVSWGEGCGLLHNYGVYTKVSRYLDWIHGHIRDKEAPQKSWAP

B1: M0093-F09 (Fab, V domains shown)
VH: EVQLLESGGGLVQPGGSLRLSCAASGFTFSDYRMWWVRQAPGKGLEWVSYIVPSGGQTSYADSVKGRFTISRDNSKNTLYLQMNSLRAEDTAVYYCARGSAYQRRTYSSGWYSASGRRGTAEYFQHWGQGTLVTVSS
VL: AQSALTQPASVSGSPGQSITISCTGTSTDDVGGYNYVSWYQQHPGKAPKLMIYDVINRPSGVSNRFSGSKSGNTASLTISGLQAEDEADYYCSSYTSRGTRVFGTGTKVTVLG
notes: also called M093-F09
In the case of B1, the Kd in assay [1] turned out to be 4.66 nM. Further, the koff in [1] was found to be 0.00279 s⁻¹. In addition, the kon in assay [1] came to 600000 M⁻¹ s⁻¹. For the same molecule, in assay [2], the “IC50 (nM), inhibition of hK1 hydrolysis of Pro-Phe-Arg-AMC” value worked out at 2.5 nM. The inhibitory constant (Ki) in assay [3], in assay [4], in assay [5], in [6], in [7] and in assay [8] was greater than 1000 nM in each case. Moreover, the Ki in assay [9], in assay [10], in assay [11], in assay [12], in assay [13] and in [14] was greater than 1000 nM in each case. Besides, the Ki in [15] turned out to be 1.9 nM. The “Fab Signal following DX-2300 (R1)” value in assay [16] is 5.9.

B2: M0137-E01 (Fab, V domains shown)
VH: EVQLLESGGGLVQPGGSLRLSCAASGFTFSRYSMTWVRQAPGKGLEWVSSIYPSGGKTTYADSVKGRFTISRDNSKNTLYLQMNSLRAEDTAVYYCASMVAPYYYDSSGYPPAEYFQHWGQGTLVTVSS
VL: AQSELTQPPSASGTPGQRVTISCSGTNSNIGSNSVFWYQQLSGTAAPKVLILRNSQRPSGVSDRFSGSKSGTSASLAISGLRSEDEADYYCATWDDSLRSPVFGGGTKLTVLG
notes: also called M137-E01
Turning to B2, the Kd in [1] is 1.29 nM. The koff in [1] stood at 0.000158 s⁻¹. Further, the kon in assay [1] is 123000 M⁻¹ s⁻¹. In addition, the “IC50 (nM), inhibition of hK1 hydrolysis of Pro-Phe-Arg-AMC” value in assay [2] came out at 0.4 nM. Besides, the Ki in [3], in [4], in [5], in [6], in [7] and in assay [8] was greater than 1000 nM each time. In addition, the Ki in assay [9], in assay [10], in assay [11], in assay [12], in [17] and in assay [13] was greater than 1000 nM each time. The Ki in assay [14] is greater than 1000 nM; in [18], 0.9 nM. For the same molecule, the “Fab Signal following DX-2300 (R1)” value in [16] came to 20.8.

B3: DX-2300 (format not stated) (antibody, V domains shown)
VH: EVQLLESGGGLVQPGGSLRLSCAASGFTFSKYKMVWVRQAPGKGLEWVSSIYPSGGITAYADSVKGRFTISRDNSKNTLYLQMNSLRAEDTAMYYCAKDITPGGGSGFRLPKNYYYYGMDVWGQGTTVTVSS
VL: not shown
As for B3, the “IC50 of kallikrein-like activity in activated urine (Pro-Phe-Arg-AMC)” value in assay [19] is 2.9 nM.

B4: DX-2300 (M0131-F07), Fab (Fab, V domains shown)
VH: EVQLLESGGGLVQPGGSLRLSCAASGFTFSKYKMVWVRQAPGKGLEWVSSIYPSGGITAYADSVKGRFTISRDNSKNTLYLQMNSLRAEDTAMYYCAKDITPGGGSGFRLPKNYYYYGMDVWGQGTTVTVSS
VL: not shown
Regarding B4, the Ki in [3], in assay [4], in assay [5], in [6], in [7] and in assay [8] was greater than 1000 nM throughout. Also, the Ki in assay [9], in assay [10], in assay [11], in [12], in assay [17] and in assay [13] was greater than 1000 nM in each case. In addition, in [14], the Ki was greater than 1000 nM.
